Patent US20190153113A1, “CD39 VASCULAR ISOFORM TARGETING AGENTS” (INNATE PHARMA, priority 2015, published 2019)

T1: Cynomolgus CD39 expressed on HEK cells (cynomolgus, UniProt A0A7N9DGH8 1-510)
T1 construct: whole, on cells; also called cynoCD39; cynomolgus vascular CD39
T1 sequence: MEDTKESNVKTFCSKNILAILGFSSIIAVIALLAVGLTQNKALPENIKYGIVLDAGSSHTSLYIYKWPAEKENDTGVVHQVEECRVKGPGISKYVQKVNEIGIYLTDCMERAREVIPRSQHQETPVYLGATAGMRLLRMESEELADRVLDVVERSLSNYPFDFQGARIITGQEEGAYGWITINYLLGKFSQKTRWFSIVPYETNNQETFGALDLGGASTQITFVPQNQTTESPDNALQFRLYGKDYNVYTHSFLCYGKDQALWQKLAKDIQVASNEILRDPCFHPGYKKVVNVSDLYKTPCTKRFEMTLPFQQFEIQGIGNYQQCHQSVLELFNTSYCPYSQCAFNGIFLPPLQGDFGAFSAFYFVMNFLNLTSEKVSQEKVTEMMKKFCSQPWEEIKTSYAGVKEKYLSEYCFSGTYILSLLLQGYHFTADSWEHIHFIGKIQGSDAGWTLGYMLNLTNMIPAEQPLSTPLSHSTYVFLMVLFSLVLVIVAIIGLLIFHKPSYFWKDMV

T2: CD39 mutant 4 (D150A, E153S, R154A, S157K, N158A, L278F) (human, UniProt P49961 1-510)
T2 construct: Transfected in HEK293T cells
T2 chain: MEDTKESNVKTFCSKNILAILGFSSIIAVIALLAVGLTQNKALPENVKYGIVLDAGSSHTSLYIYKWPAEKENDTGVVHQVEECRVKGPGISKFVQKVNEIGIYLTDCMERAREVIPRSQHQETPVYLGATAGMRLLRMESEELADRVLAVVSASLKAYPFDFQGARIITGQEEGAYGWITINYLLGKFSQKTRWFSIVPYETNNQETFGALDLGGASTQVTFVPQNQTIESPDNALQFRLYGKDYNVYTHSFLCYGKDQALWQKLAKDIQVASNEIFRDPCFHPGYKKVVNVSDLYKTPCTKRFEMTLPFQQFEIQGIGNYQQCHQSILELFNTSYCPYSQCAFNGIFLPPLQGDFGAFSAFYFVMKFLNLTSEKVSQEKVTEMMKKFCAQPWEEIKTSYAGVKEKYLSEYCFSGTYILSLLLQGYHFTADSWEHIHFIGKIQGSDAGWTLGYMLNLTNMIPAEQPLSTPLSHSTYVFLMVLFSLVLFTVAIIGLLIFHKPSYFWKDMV

T3: CD39-L4 (Homo sapiens, UniProt O75356)
T3 sequence (O75356 25-428): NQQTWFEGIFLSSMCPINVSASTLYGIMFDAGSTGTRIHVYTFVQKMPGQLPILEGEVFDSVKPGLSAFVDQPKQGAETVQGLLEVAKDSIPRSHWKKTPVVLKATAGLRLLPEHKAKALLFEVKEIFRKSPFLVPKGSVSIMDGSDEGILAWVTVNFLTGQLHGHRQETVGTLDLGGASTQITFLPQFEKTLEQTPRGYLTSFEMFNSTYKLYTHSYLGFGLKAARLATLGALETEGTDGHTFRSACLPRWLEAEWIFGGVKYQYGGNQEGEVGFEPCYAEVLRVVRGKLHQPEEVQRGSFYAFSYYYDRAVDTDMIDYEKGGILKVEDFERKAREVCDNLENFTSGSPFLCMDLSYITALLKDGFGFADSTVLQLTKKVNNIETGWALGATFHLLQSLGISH

T4: vascular CD39 (Homo sapiens, UniProt P49961)
T4 construct: recombinant human CD39-M2 extracellular domain recombinant protein; made in house; host or cells: CHO cells (secreted, purified from supernatant)
T4 sequence (P49961 38-478 limits assumed): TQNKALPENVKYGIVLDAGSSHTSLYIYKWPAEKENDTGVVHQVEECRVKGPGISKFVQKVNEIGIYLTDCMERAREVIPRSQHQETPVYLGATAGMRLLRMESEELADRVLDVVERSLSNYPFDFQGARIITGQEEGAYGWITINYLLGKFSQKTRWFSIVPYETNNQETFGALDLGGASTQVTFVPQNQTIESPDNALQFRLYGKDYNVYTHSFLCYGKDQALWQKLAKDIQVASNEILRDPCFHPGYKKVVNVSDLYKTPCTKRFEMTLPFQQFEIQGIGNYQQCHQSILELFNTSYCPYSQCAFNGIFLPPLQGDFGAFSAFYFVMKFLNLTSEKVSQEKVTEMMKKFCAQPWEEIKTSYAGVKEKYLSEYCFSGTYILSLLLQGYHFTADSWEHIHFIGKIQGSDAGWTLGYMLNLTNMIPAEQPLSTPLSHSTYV

T5: CD39-L3 (Homo sapiens, UniProt O75355)
T5 sequence (O75355 1-529): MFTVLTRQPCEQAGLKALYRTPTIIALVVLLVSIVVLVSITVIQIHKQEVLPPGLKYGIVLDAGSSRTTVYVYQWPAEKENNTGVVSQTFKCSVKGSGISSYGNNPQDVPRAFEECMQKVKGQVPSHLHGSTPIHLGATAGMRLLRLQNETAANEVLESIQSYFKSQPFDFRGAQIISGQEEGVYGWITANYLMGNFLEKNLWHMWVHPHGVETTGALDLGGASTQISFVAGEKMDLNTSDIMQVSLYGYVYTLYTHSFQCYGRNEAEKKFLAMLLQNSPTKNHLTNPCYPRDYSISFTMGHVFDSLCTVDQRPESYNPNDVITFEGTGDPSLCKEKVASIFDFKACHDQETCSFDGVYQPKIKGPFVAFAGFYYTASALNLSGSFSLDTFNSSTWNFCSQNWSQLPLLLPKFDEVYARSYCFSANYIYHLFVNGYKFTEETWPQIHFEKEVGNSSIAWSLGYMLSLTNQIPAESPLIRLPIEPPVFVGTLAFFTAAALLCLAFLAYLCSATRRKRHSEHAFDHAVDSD


Experiments:
[1] = target: T1, Cynomolgus CD39 expressed on HEK cells; assay: flow cytometry on HEK cells expressing cynomolgus CD39, antibody 99 nM to 0.045 nM (FIG. 1 legend says ELISA)
Protocol: Briefly, 1×10⁵ HEK-huCD39or cynoCD39 cells were incubated with various concentration of unlabeled anti-CD39 antibody or isotype control (IC) from 99 nM to 0.045 nM, for 30 minutes at 4° C. After washes, cells were incubated with Goat anti-mouse H+L labeled secondary antibody for 30 min at 4° C.

[2] = target: T2, CD39 mutant 4 (D150A, E153S, R154A, …); assay: flow cytometry, HEK293T cells transfected with mutant 4
CD39-L4 = target: T3, CD39-L4; assay: ELISA titration on recombinant human CD39 isoforms; type: binding; settings: recombinant protein coated
Protocol: (§1) Wells were washed in TBS Tween 20, and further saturated 2H at RT in TBS Blocking buffer. Dose range concentration of primary antibody was incubated in TBS blocking buffer for 2h at RT. Wells were washed in TBS Tween 20. […] Optical density was measured on Enspire at OD=450.

vascular CD39 = target: T4, vascular CD39; assay: ELISA titration on recombinant human CD39 isoforms; type: binding; settings: recombinant protein coated
Protocol: as §1

CD39-L3 = target: T5, CD39-L3; assay: ELISA titration on recombinant human CD39 isoforms; type: binding; settings: recombinant protein coated
Protocol: as §1

Row | EC50 [1] | binding result [2] | binding to CD39-L4 (CD39-L4) | binding to vascular CD39 (vascular CD39) | binding to CD39-L3 (CD39-L3) | Molecule
1 | 10.6 nM | binds |  |  |  | Antibody I-391, Fc silent recombinant chimeric human IgG1 with heavy chain N297Q mutation (antibody, V domains shown) VH: QIQLVQSGPELKKPGETVKISCKASGYTFRNYGMNWVKQAPGKGLKWMGWINTYTGEPTYADDFKGRFAFSLATSASTAYLQISNLKNEDTATYFCARKAYYGSNYYFDYWGQGTTLTVSS VL: DIVMTQSHKFMSTSVGDRVSITCKASQDVSTAVAWYQQKPGQSPKLLIYSASYRYTGVPDRFTGSGSGTDFTFTISTVQAEDLAVYYCQQHYTTPPYTFGGGTKLEIKR
2 |  |  | not to any of the CD39 isoforms | bound to the vascular CD39 | not to any of the CD39 isoforms | I-392: anti-CD39 antibody, VH SEQ ID NO: 8 and VL SEQ ID NO: 9, chimeric human IgG1 with N297Q mutation (antibody, V domains shown) VH: QIQLVQSGPEVKKPRETVKISCKASGYTFTHYGMNWVKQAPGKGLKWMGWINTYTGEPTYADDFKGRFAFSLEASASTAYLQINNLKNEDTATYFCARRRYEGNYVFYYFDYWGQGTTLTVSS VL: DIQMTQSPASLSASVGETVTITCRASENIYSYFSWYQQKQGKSPQLLVYTAKTLAEGVPSRFSGSGSGTQFSLKINSLQPEDFGSYYCQHHYVTPYTFGGGTKLEIK
